Experiment [1] deals with sochicetin-B (Echis sochureki). Kind of experiment: ELISA. (ELISA stands for enzyme-linked immunosorbent assay.)
The target of experiment [2] is sochicetin-C (Echis sochureki). Kind of experiment: ELISA.
The target in experiment [3] is sochicetin-A (Echis sochureki). Kind of experiment: ELISA.
Experiment [4] concerns the target soluble integrin α2β1 ectodomain (UniProt P17301). Kind of experiment: ELISA.
Experiment [5] has as its target sochicetin-A αβ heterodimer (Echis sochureki). Kind of experiment: SDS-PAGE, non-reduced against reduced and partly reduced + MALDI-TOF.

As a reminder, the Kd is a measure of binding affinity in units of concentration. Read a low Kd as tighter binding. Regarding “recombinant GST-tagged integrin α2 A-domain (domain or fragment)”, the Kd in experiment [1] came to 0.0173 µM; in experiment [2] it was 0.0545 µM; in experiment [3], 0.0117 µM.
Usually IC50 stands for the concentration needed to halve the response being measured. sochicetin-A (complex) gave an IC50 in experiment [4] of 0.0597 µM.
In general, stoichiometry N refers to a count of units in the complex or per binding partner. Regarding sochicetin-A αβ heterodimer (complex), the stoichiometry N in experiment [5] came to 3.
Regarding sochicetin-B (complex), the IC50 in experiment [4] amounted to 0.0327 µM.
Still for that read-out and setting: to sochicetin-C (complex) belongs 1.48 µM.

Source of the values: PMC3627822.
